Target: T1, TMR-Asp-Glu-Ser-Glu-Glu-Glu-Asp-Lys(Nε-Flsn)-COOH reporter peptide (casein kinase II substrate peptide), unphosphorylated (not fully specified)
T1 chain: DESEEEDK

B1: Human casein kinase II (CKII) (protein)
chain: MSGPVPSRARVYTDVNTHRPREYWDYESHVVEWGNQDDYQLVRKLGRGKYSEVFEAINITNNEKVVVKILKPVKKKKIKREIKILENLRGGPNIITLADIVKDPVSRTPALVFEHVNNTDFKQLYQTLTDYDIRFYMYEILKALDYCHSMGIMHRDVKPHNVMIDHEHRKLRLIDWGLAEFYHPGQEYNVRVASRYFKGPELLVDYQMYDYSLDMWSLGCMLASMIFRKEPFFHGHDNYDQLVRIAKVLGTEDLYDYIDKYNIELDPRFNDILGRHSRKRWERFVHSENQHLVSPEALDFLDKLLRYDHQSRLTAREAMEHPYFYTVVKDQARMGSSSMPGGSTPVSSANMMSGISSVPTPSPLGPLAGSPVIAAANPLGMPVPAAAGAQQ
phosphorylation of the peptide by CKII, HPLC analysis: Phosphorylation of the peptide by CKII was confirmed by incubation of the peptide with kinase

From patent publication US7202050
